Measured values: PMC9666304, “Quinone binding site in a type VI sulfide:quinone oxidoreductase” (Applied Microbiology and Biotechnology, 2022)
Changes are numbered by the printed parent chain. Names and notes keep the numbering of the source.

T1: TrSqrF; SqrF WT (Thiocapsa roseopersicina, UniProt A0A1Z2RRG1)
T1 sequence (A0A1Z2RRG1 1-375): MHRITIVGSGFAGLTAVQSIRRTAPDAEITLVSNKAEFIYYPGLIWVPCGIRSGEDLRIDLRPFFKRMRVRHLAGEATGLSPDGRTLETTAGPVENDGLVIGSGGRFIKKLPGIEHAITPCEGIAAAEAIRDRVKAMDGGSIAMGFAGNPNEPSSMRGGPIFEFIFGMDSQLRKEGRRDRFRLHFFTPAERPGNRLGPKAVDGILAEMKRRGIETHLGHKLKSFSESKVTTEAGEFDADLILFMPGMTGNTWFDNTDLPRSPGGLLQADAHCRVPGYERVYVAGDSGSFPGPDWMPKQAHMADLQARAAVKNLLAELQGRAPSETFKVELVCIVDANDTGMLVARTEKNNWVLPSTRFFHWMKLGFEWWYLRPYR

B1: SqrF CTD (Thiocapsa roseopersicina) (protein)
chain: MHRITIVGSGFAGLTAVQSIRRTAPDAEITLVSNKAEFIYYPGLIWVPCGIRSGEDLRIDLRPFFKRMRVRHLAGEATGLSPDGRTLETTAGPVENDGLVIGSGGRFIKKLPGIEHAITPCEGIAAAEAIRDRVKAMDGGSIAMGFAGNPNEPSSMRGGPIFEFIFGMDSQLRKEGRRDRFRLHFFTPAERPGNRLGPKAVDGILAEMKRRGIETHLGHKLKSFSESKVTTEAGEFDADLILFMPGMTGNTWFDNTDLPRSPGGLLQADAHCRVPGYERVYVAGDSGSFPGPDWMPKQAHMADLQARAAVKNLLAELQGRAPSETFKVELVCIVDANDTGMLVARTEKNNWVLPST
notes: C-terminal alpha-helix deletion, stop codons after Thr356; N-terminal StrepII tag, expressed in T. roseopersicina FOQRON
B2: TrSqrF; SqrF WT (Thiocapsa roseopersicina) (protein)
chain: T1 sequence (A0A1Z2RRG1 1-375)
B3: TrSqrF; SqrF WT (Thiocapsa roseopersicina; F366A) (protein)
chain: T1 sequence (A0A1Z2RRG1 1-375) with F366A
B4: TrSqrF; SqrF WT (Thiocapsa roseopersicina; I333F) (protein)
chain: T1 sequence (A0A1Z2RRG1 1-375) with I333F
B5: TrSqrF; SqrF WT (Thiocapsa roseopersicina; F366Y) (protein)
chain: T1 sequence (A0A1Z2RRG1 1-375) with F366Y
B6: TrSqrF; SqrF WT (Thiocapsa roseopersicina; V331F) (protein)
chain: T1 sequence (A0A1Z2RRG1 1-375) with V331F
B7: TrSqrF; SqrF WT (Thiocapsa roseopersicina; V331A) (protein)
chain: T1 sequence (A0A1Z2RRG1 1-375) with V331A

Substrate: CC1=C(C)C(=O)C(C)=C(C)C1=O
Assay: purified protein
Type: biochemical, Thiocapsa roseopersicina
Settings: 200 µM sulfide, 50 mM Tris-HCl pH 8.0, 25 °C, anaerobic

Q: With B1 as the molecule, how does the Km read?
A: 70.71 ± 44.78 µM

Q: What about the kcat of the same molecule?
A: 0.96 ± 0.24 s⁻¹

Q: And the kcat/Km?
A: 14000 M⁻¹ s⁻¹

Q: B2 was tested. Which Km did it give?
A: 27.39 ± 2.47 µM

Q: And the kcat?
A: 1.25 ± 0.04 s⁻¹

Q: What about the kcat/Km of the same molecule?
A: 46000 M⁻¹ s⁻¹

Q: Which Km does the source give for B3 here?
A: 46.19 ± 2.53 µM

Q: What about the kcat of the same molecule?
A: 0.26 ± 0.01 s⁻¹

Q: And the kcat/Km?
A: 6000 M⁻¹ s⁻¹

Q: B4 was tested. Which Km did it give?
A: 102.7 ± 69.9 µM

Q: And the kcat?
A: 0.72 ± 0.21 s⁻¹

Q: And the kcat/Km?
A: 7000 M⁻¹ s⁻¹

Q: Which Km does the source give for B5 here?
A: 79.30 ± 14.68 µM

Q: What about the kcat of the same molecule?
A: 0.57 ± 0.08 s⁻¹

Q: What about the kcat/Km of the same molecule?
A: 7000 M⁻¹ s⁻¹

Q: Which Km does the source give for B6 here?
A: 40.23 ± 7.36 µM

Q: What about the kcat of the same molecule?
A: 0.72 ± 0.02 s⁻¹

Q: And the kcat/Km?
A: 18000 M⁻¹ s⁻¹

Substrate: CCCCCCCCCCC1=C(C)C(=O)C(OC)=C(OC)C1=O
Assay: purified protein
Type: biochemical, Thiocapsa roseopersicina
Settings: 200 µM sulfide, 50 mM Tris-HCl pH 8.0, 25 °C, anaerobic

Q: B1 was tested. Which Km did it give?
A: 18.99 ± 0.67 µM

Q: What about the kcat of the same molecule?
A: 4.9 ± 0.8 s⁻¹

Q: And the kcat/Km?
A: 268000 M⁻¹ s⁻¹

Q: B2 was tested. Which Km did it give?
A: 24.47 ± 6.42 µM

Q: What about the kcat of the same molecule?
A: 8.37 ± 0.33 s⁻¹

Q: And the kcat/Km?
A: 342000 M⁻¹ s⁻¹

Q: How did the Km turn out when B7 was run?
A: 18.99 ± 6.10 µM

Q: And the kcat?
A: 2.47 ± 0.33 s⁻¹

Q: What about the kcat/Km of the same molecule?
A: 130000 M⁻¹ s⁻¹

Q: For B3, which Km is on record?
A: 9.38 ± 1.97 µM

Q: What about the kcat of the same molecule?
A: 1.97 ± 0.28 s⁻¹

Q: And the kcat/Km?
A: 210000 M⁻¹ s⁻¹

Q: Which results are given for B4?
A: Km: 13.98 ± 7.20 µM; kcat: 1.2 ± 0.48 s⁻¹; kcat/Km: 86000 M⁻¹ s⁻¹

Q: Which results are given for B5?
A: Km: 10.03 ± 1.39 µM; kcat: 3.17 ± 0.82 s⁻¹; kcat/Km: 316000 M⁻¹ s⁻¹

Q: B6 was tested. Which Km did it give?
A: 12.33 ± 0.86 µM

Q: And the kcat?
A: 3.64 ± 1.06 s⁻¹

Q: And the kcat/Km?
A: 295000 M⁻¹ s⁻¹

Target: T1, TrSqrF; SqrF WT
Assay: UV-visible absorption of purified protein; in-gel FAD fluorescence
Type: binding
Settings: co-purified cofactor

Q: How did the “UV-visible absorption of purified protein; in-gel FAD fluorescence” value turn out when `Cc1cc2nc3c(=O)[nH]c(=O)nc-3n(C[C@H](O)[C@H](O)[C@H](O)COP(=O)(O)OP(=O)(O)OC[C@H]3O[C@@H](n4cnc5c(N)ncnc54)[C@H](O)[C@@H]3O)c2cc1C` [FAD, flavin adenine dinucleotide] was run?
A: Absorption maxima at these wavelengths indicated that all TrSqrF variants contained the FAD cofactor
